This is an account of results in paper PMC12394075, “Domain coupling in activation of a family C GPCR” (Nature Chemical Biology, 2024).

This data set concerns the molecule itself. Briefly: SEC; Superose 6 10/300 increase GL equilibrated in detergent-free buffer, after elution in 0.005% MNG/GDN/CHS.

B1: full-length mGluR2 (FLAG-tagged, purified in detergent micelles) (receptor, rat, UniProt P31421 19-872, looked up)
chain: EGPAKKVLTLEGDLVLGGLFPVHQKGGPAEECGPVNEHRGIQRLEAMLFALDRINRDPHLLPGVRLGAHILDSCSKDTHALEQALDFVRASLSRGADGSRHICPDGSYATHSDAPTAVTGVIGGSYSDVSIQVANLLRLFQIPQISYASTSAKLSDKSRYDYFARTVPPDFFQAKAMAEILRFFNWTYVSTVASEGDYGETGIEAFELEARARNICVATSEKVGRAMSRAAFEGVVRALLQKPSARVAVLFTRSEDARELLAATQRLNASFTWVASDGWGALESVVAGSERAAEGAITIELASYPISDFASYFQSLDPWNNSRNPWFREFWEERFHCSFRQRDCAAHSLRAVPFEQESKIMFVVNAVYAMAHALHNMHRALCPNTTHLCDAMRPVNGRRLYKDFVLNVKFDAPFRPADTDDEVRFDRFGDGIGRYNIFTYLRAGSGRYRYQKVGYWAEGLTLDTSFIPWASPSAGPLPASRCSEPCLQNEVKSVQPGEVCCWLCIPCQPYEYRLDEFTCADCGLGYWPNASLTGCFELPQEYIRWGDAWAVGPVTIACLGALATLFVLGVFVRHNATPVVKASGRELCYILLGGVFLCYCMTFVFIAKPSTAVCTLRRLGLGTAFSVCYSALLTKTNRIARIFGGAREGAQRPRFISPASQVAICLALISGQLLIVAAWLVVEAPGTGKETAPERREVVTLRCNHRDASMLGSLAYNVLLIALCTLYAFKTRKCPENFNEAKFIGFTMYTTCIIWLAFLPIFYVTSSDYRVQTTTMCVSVSLSGSVVLGCLFAPKLHIILFQPQKNVVSHRAPTSRFGSAAPRASANLGQGSGSQFVPTVCNGREVVDSTTSSL
notes: also called full-length mGluR2 construct; full-length receptor
B1: the binding result is listed as “binds”.
